Consider 2 molecules from US6248554, “DNA sequence coding for a BMP receptor” (The Procter & Gamble Company, dated 2001).

The chains are these.
B1: BMP receptor kinase protein-1 (receptor)
chain: QNLDSMLHGTGMKSDLDQKKPENGVTLAPEDTLPFLKCYCSGHCPDDAINNTCITNGHCFAIIEEDDQGETTLTSGCMKYEGSDFQCKDSPKAQLRRTIECCRTNLCNQYLQPTLPPVVIGPFFDGSIRWLVVLISMAVCIVAMIIFSSCFCYKHYCKSISSRGRYNRDLEQDEAFIPVGESLKDLIDQSQSSGSGSGLPLLVQRTIAKQIQMVRQVGKGRYGEVWMGKWRGEKVAVKVFFTTEEASWFRETEIYQTVLMRHENILGFIAADIKGTGSWTQLYLITDYHENGSLYDFLKCATLDTRALLKLAYSAACGLCHLHTEIYGTQGKPAIAHRDLKSKNILIKKNGSCCIADLGLAVKFNSDTNEVDIPLNTRVGTKRYMAPEVLDESLNKNHFQPYIMADIYSFGLIIWEMARRCITGGIVEEYQLPYYNMVPSDPSYEDMREVVCVKRLRPIVSNRWNSDECLRAVLKLMSECWAHNPASRLTALRIKKTLAKMVESQDVKI
B2: bone morphogenetic protein 4 (ligand)
chain: SPKHHSQRARKKNKNCRRHSLYVDFSDVGWNDWIVAPPGYQAFYCHGDCPFPLADHLNSTNHAIVQTLVNSVNSSIPKACCVPTELSAISMLYLDEYDKVVLKNYQEMVVEGCGCR
modifications: 125I label by the chloramine-T method where used as tracer

In one assay the target is T1, digit-removed BMP-2 (Homo sapiens (Human), UniProt P12643, 125I label by the chloramine-T method).
T1 sequence: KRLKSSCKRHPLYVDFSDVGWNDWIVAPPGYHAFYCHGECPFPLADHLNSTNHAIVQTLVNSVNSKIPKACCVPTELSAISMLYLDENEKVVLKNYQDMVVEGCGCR
Description: DSS crosslinking on transfected COS-7 cells, SDS-PAGE. An excerpt:
(§1) In this method, the bifunctional crosslinking reagent disuccinimidyl suberate (DSS) (Pierce Chemical, Rockford, Ill.) is used to covalently crosslink bound radiolabeled ligand to its receptor by reaction with free amino groups on lysine residues in the two proteins. Following the crosslinking, cellular proteins are separated by gel electrophoresis, and radioactive bands visualized. The labeled bands represent the receptor selectively "tagged" with the radiolabeled ligand. In this procedure, cells are transfected with pJT4-J159F as described in example 7, then seeded into 12 well plates at 670,000 cells/well. Media is changed after 24 hr. At 48 hr after electroporation, the cells are washed, equilibrated, and incubated with [^125I]-BMP-4 or [^125I]-DRBMP-2 and competing unlabeled ligands as described in this example for whole cell binding studies.
(§2) After completion of the 4 hour incubation with ligand, the cells are washed three times at 4° C. with 2 ml of binding buffer having the same composition as described above, except that no BSA is added. To each well is then added 1 ml of fresh BSA-free binding buffer, followed by freshly prepared DSS to a final concentration of 135 μM. After swirling gently to mix the DSS, the plates are incubated for exactly 15 minutes at 4° C. with gentle shaking. […]

The target of assay [1] is T2, bone morphogenetic protein 2 (Homo sapiens (Human), UniProt P12643).
T2 sequence: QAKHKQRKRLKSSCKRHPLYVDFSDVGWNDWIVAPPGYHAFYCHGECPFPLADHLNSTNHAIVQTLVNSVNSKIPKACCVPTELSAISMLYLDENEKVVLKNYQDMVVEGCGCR
Description: competition: 10 nM unlabelled BMP-2 greatly reduces the band of [125I]-BMP-4 or [125I]-DR-BMP-2 crosslinked to BRK-1.
Source text: as §1, §2

Assay [2] concerns the target B2. Description: saturation binding of [125I]-BMP-4 (10-1000 pM) on COS-7 cells transfected with BRK-1, nonspecific binding with 10 nM unlabelled BMP-4, LIGAND software. The method, then: For whole cell binding experiments, COS-7 cells are transfected with pJT4-J159F as described in example 7. After electroporation, cells are seeded in 12 well plates at 670,000 cells/ell. Media is changed after 24 hr, and binding experiments are carried out at 48 hr. At that time, cells are washed once with binding buffer (50 mM Hepes buffer, pH 7.4, 128 mM NaCl, 5 mM KCl, 5 mM MgSO_4, 1.2 mM CaCl_2, 2 mg/ml BSA), then equilibrated in the same buffer at 4° C. for 30 min with gentle shaking. The buffer is then aspirated, and to each well is added 500 µl of binding buffer (4° C.), containing [^125I]-BMP-4 tracer (100 pM), as well as varying concentrations of unlabeled BMP-2, BMP-4, or other unlabeled ligand, depending on the assay. For determination of nonspecific binding, BMP-2 is added to the binding buffer at a final concentration of 10 nM. […] The solubilized cells are then transferred to fresh tubes and counted in a Packard Model 5005 "COBRA" Gamma Counter (Packard Instrument Co., Downers Grove, Ill.).
In order to obtain a more quanitative characterization of binding to BRK-1, a saturation binding analysis is performed on COS-7 cells transfected with the cDNA for BRK-1, using the construct pJT4-J159F. Binding of [^125I]-BMP-4 is examined over a concentration range of 10–1000 pM, with nonspecific binding determined with 10 nM unlabeled BMP-4.

For assay [3], the target named is B1. In words: whole cell binding of [125I]-BMP-4 (100 pM), nonspecific binding with 10 nM BMP-2, COS-7 cells transfected with pJT4-J159F. The method, then: The detached cells are pelleted in a tabletop centrifuge, then resuspended in fresh media at a concentration of 6.25 ×10^6 cells/ml. The cell suspension (5 ×10^6 cells, 0.8 ml) is transferred to the cuvette from a BioRad "GENE PULSER" electroporation system (BioRad, Hercules, Calif.). The purified DNA plasmid (10 μg) is added to the cuvette, and the cells subjected to electoporation at 4.0 kV/cm, with a capacitance of 25 μFd. Cells are then plated and allowed to recover. Fresh media is supplied after 24 hr. At 48 hr, cells are ready to be tested for binding of BMP-4.
For whole cell binding experiments, COS-7 cells are transfected with pJT4-J159F as described in example 7. After electroporation, cells are seeded in 12 well plates at 670,000 cells/ell. Media is changed after 24 hr, and binding experiments are carried out at 48 hr. At that time, cells are washed once with binding buffer (50 mM Hepes buffer, pH 7.4, 128 mM NaCl, 5 mM KCl, 5 mM MgSO_4, 1.2 mM CaCl_2, 2 mg/ml BSA), then equilibrated in the same buffer at 4° C. for 30 min with gentle shaking. […] The solubilized cells are then transferred to fresh tubes and counted in a Packard Model 5005 "COBRA" Gamma Counter (Packard Instrument Co., Downers Grove, Ill.).

B1: the binding result (in the assay with digit-removed BMP-2; in assay [1]) was “binds” each time. In addition, in assay [2], binding was characterised by a dissociation constant (Kd) of 0.5 nM.
As to B2, the “specific binding relative to mock-transfected COS-7 cells” value in assay [3] is 3 times.
